Target: EcoSSB-Q152del (C-terminal truncated SSB) (Escherichia coli, UniProt P0AGE0 SEQ:1-152)
Experiment: EMSA; complex formation not impaired vs WT; 5% TBE gel
Settings: tags: N-terminal His6-TEV site removed; chain copies: 4 inferred

B1: 70mer polyT (ssDNA)
DNA: TTTTTTTTTTTTTTTTTTTTTTTTTTTTTTTTTTTTTTTTTTTTTTTTTTTTTTTTTTTTTTTTTTTTTT
binding result: binds
